Source: US10584350B2, “Structurally modified COI1” (Board of Trustees of Michigan State University, priority 2016, dated 2020)
“Also recorded” adds a separate entry of the source.

Legend:
[1] = tested on: COI1WT/A384V-JAZ9 co-receptor; assay: Coreceptor pull-down assay; assay type: binding, Arabidopsis; conditions: plant-expressed COI1, E. coli-expressed JAZ9
Experimental: Pull-down assays were performed with protein extracts from 4-mg pCOI1:COI1WT/A384V-4×c-Myc plants and 25 μg recombinant MBP-JAZ9-8×His. Assays were performed in the presence of JA-Ile or COR at various concentrations and incubated for 30 min at 4° C. in the binding buffer (Katsir et al., Proc Natl Acad Sci USA 105(19):7100-7105 (2008)). Eighty microliters of Ni resin (Invitrogen) were added, followed by an additional 15-min incubation period at 4° C. MBP-JAZ9-8×Hisbound Ni resin was washed three times on microcentrifuge spin columns with 0.25 mL binding buffer at 4° C. MBP-JAZ9-8×His was eluted from the resin with 100 μL of 300 mM imidazole. Proteins bound to MBP-JAZ9-8×His were analyzed by immunoblotting for the presence of COI1WT/A384V-4×c-Myc using anti-cMyc antibody. MBP-JAZ9-8×His recovered by the Ni affinity resin was detected by Coomassie blue staining.

[2] = tested on: root growth; assay: Root growth inhibition assays; assay type: in vivo, Arabidopsis; conditions: for sensitivity of plants to COR vs MeJA: root growth inhibition, 0.2 μM COR vs 10 μM MeJA, in vivo
Experimental: Col-0, segregating COI1-30, transgenic COI1WT, and COI1A384V seeds were surface-sterilized, cold-stratified, and germinated on half-strength MS agar media containing MeJA, COR, or DMSO at the indicated concentrations. Seedlings were grown under long-day light conditions (16-h light at 100 μE·m^2·s, and 8-h dark) for 10-12 days before scanning images of roots. Root lengths were measured using ImageJ software (see website at rsbweb.nih.gov/ij/).

[3] = tested on: JAZ9 gene expression; assay: qPCR of JA-responsive marker gene JAZ9; assay type: in vivo, Arabidopsis; conditions: 10 μM MeJA or 0.2 μM COR, 3 h
Experimental: (§1) Col-0 and transgenic seeds were germinated on half-strength MS medium. Five-day-old seedlings were transferred into liquid half-strength MS medium. Segregating coil-30 seeds were germinated on half-strength MS medium with 10 μM MeJA. and MeJA-resistant 5-d-old seedlings were transferred into liquid half-strength MS medium. Next, 10 μM MeJA (Sigma), 0.2 μM COR or 0.1% DMSO were applied to 12-d-old seedlings. Samples were collected after 3 h and total RNA was extracted using Qiagen RNeasy Mini kit (Qiagen). M-MLV Reverse transcriptase (Life Technologies) and SYBR Green master mix (Life Technologies) were used for reverse-transcription and real-time PCR. Primers used were: […]

[4] = tested on: COI1-JAZ9 interaction; assay: Quantitative liquid Y2H assays (Beta-Glo, RLU); assay type: cell-based, Arabidopsis; conditions: yeast
Experimental: Yeast EGY48 strain carrying the p8Op:LacZ reporter plasmid was co-transformed with pGilda:COI1 (or COI1 mutants) and pB42AD:JAZ9 (or other JAZs) (Clontech). Colonies were selected on SD minimal plates (BD Biosciences) supplemented with the—uracil (U)/-tryptophan (W)/-histidine (H) amino acid drop out solution (Clontech). Yeast colonies were cultured overnight in liquid SD-UWH medium, harvested, washed twice in sterile water, and the absorbance (OD600) of the cultures was adjusted to 0.2 in liquid SD galactose/raffinose-UWH medium (BD Biosciences).
For liquid Y2H assays, cultures were supplemented with designated concentrations of JA-Ile (10 or 30 μM), COR (1 μM), or DMSO. After 16-h incubation with ligands, the liquid cultures were processed through the Beta-Glo Assay system (Promega) for detecting the β-galactosidase activity. […] Protein expression in yeast was detected using anti-LexA antibody (1:5,000; Upstate Biotechnology) for detection of COI1 expression from pGilda vector and anti-HA (1:5,000; Roche Life Science) antibody for detection of JAZ9 expression in pB42AD vector.

[5] = tested on: Pst DC3000; assay: Bacterial infection assay, dip-inoculation; assay type: in vivo, Pseudomonas syringae pv tomato; conditions: 3 days after dip-inoculation
Experimental: (§2) The Pseudomonas syringae infection assays in Arabidopsis were performed as described by Yao et al. (Methods Mol Biol 1011:63-81 (2013)). In brief, 4- to 5-wk-old (12-h light/12-h dark) Arabidopsis plants were dip-inoculated with bacterial suspension (1×10^8 cfu/mL Pst DC3000 or Psm ES4326 in 0.25 mM MgCl2 solution with 0.025% Silwet-77) or syringe-infiltrated with bacterial suspension (1×10^6 cfu/mL Pst DC3118 or DB29 in 0.25 mM MgCl2 solution). Bacterial growth was determined by serial dilutions of plant extracts 3 or 4 days after inoculation. Homozygous COI1-30 plants were selected by genotyping before bacterial infection.

[6] = tested on: PR1 gene expression; assay: qPCR of SA-responsive gene PR1; assay type: in vivo, Arabidopsis; conditions: plants expressing the protein
Experimental: as §1

[7] = tested on: Spodoptera exigua; assay: Insect feeding assays; assay type: in vivo
Experimental: Insect bioassays were performed as described by Herde et al. (Methods Mol Biol 1011:51-61 (2013)). Briefly, eggs of Spodoptera exigua were obtained from Benzon Research, and four neonate Spodoptera exigua larvae were transferred to the center of each 6-wk-old Arabidopsis host plant. Plants were grown under 8-hour light (100 μE·m^2·s) and 16-h dark and covered with cup cages. Larval weights were determined after 9-12 days of feeding.

[8] = tested on: SID2 gene expression; assay: qPCR of SA-responsive gene SID2; assay type: in vivo, Arabidopsis; conditions: plants expressing the protein
Experimental: as §1

[9] = tested on: Psm ES4326; assay: Bacterial infection assay, dip-inoculation; assay type: in vivo, Pseudomonas syringae pv maculicola; conditions: 3 days after dip-inoculation
Experimental: as §2

Q: For `CC[C@H]1C=C(C(=O)N[C@@]2(C(=O)O)C[C@H]2CC)[C@H]2CCC(=O)[C@H]2C1` [COR, coronatine], which “higher concentration required for robust formation of the COI1A384V-JAZ9 co-receptor than for the COI1WT-JAZ9 co-receptor” value [1] is on record?
A: Its value is ~100 fold.

Q: And the “less effective in COI A384V than in Col-0 and COI1WT (root growth inhibition)” value ([2]; 0.2 μM COR)?
A: The value was “about 100 fold”.

Q: What about the “concentrations of comparable potency in inhibiting root growth” value ([2]; COI1A384V plants) of the same molecule?
A: The value was 200 nM.

Q: And the “concentrations with equivalent effect on root growth inhibition” value ([2]; wild-type Col-0 plants)?
A: The value was 0.2 µM.

Q: And the “induction of JAZ9 expression compared with that in COI1-30 plants” value ([3]; COI1A384V L1 line)?
A: Its value is “eight-fold”.

Q: What about the “JAZ9 gene expression in response to treatment compared with Col-0 or COI1WT plants” value ([3]; COI1A384V lines) of the same molecule?
A: The value was “significantly reduced”.

Q: What about the “JAZ9 gene expression after application” value ([3]; Col-0 and COI1WT plants) of the same molecule?
A: The value was “induced”.

Q: What about the “concentrations equivalent in promoting the COI1-JAZ9 interaction” value ([4]; JA-Ile is a mixture of active and inactive isomers, COR pure) of the same molecule?
A: Its value is 0.1 µM.

B1: COI1A384V: modified Arabidopsis thaliana COI1 protein with valine at position 384 (SEQ ID NO:2); also names transgenic plants expressing it (protein, listed as Arabidopsis thaliana)
chain: MEDPDIKRCKLSCVATVDDVIEQVMTYITDPKDRDSASLVCRRWFKIDSETREHVTMALCYTATPDRLSRRFPNLRSLKLKGKPRAAMFNLIPENWGGYVTPWVTEISNNLRQLKSVHFRRMIVSDLDLDRLAKARADDLETLKLDKCSGFTTDGLLSIVTHCRKIKTLLMEESSFSEKDGKWLHELAQHNTSLEVLNFYMTEFAKISPKDLETIARNCRSLVSVKVGDFEILELVGFFKAAANLEEFCGGSLNEDIGMPEKYMNLVFPRKLCRLGLSYMGPNEMPILFPFAAQIRKLDLLYALLETEDHCTLIQKCPNLEVLETRNVIGDRGLEVLAQYCKQLKRLRIERGADEQGMEDEEGLVSQRGLIALAQGCQELEYMVVYVSDITNESLESIGTYLKNLCDFRLVLLDREERITDLPLDNGVRSLLIGCKKLRRFAFYLRQGGLTDLGLSYIGQYSPNVRWMLLGYVGESDEGLMEFSRGCPNLQKLEMRGCCFSERAIAAAVTKLPSLRYLWVQGYRASMTGQDLMQMARPYWNIELIPSRRVPEVNQQGEIREMEHPAHILAYYSLAGQRTDCPTTVRVLKEPI
Q: Which “resistance / susceptibility to Pst DC3000 (bacterial growth and disease symptoms)” value [5] does the source give for B1 here?
A: Its value is “significantly increased resistance”.

Q: And the “expression of PR1 gene” value [6]?
A: The value was “similarly low”.

Q: What about the “average weight of larvae feeding on COI1-30 plants higher than larvae reared on these plants” value ([7]; S. exigua neonate larvae) of the same molecule?
A: Its value is “five-fold”.

Q: What about the “level of defense against S. exigua” value ([7]; in vivo) of the same molecule?
A: Its value is “almost wild-type levels”.

Q: What about the “expression of SID2 gene” value [8] of the same molecule?
A: The value was “similarly low”.

Q: What about the “resistance to Psm ES4326 compared with Col-0 or COI1WT plants” value [9] of the same molecule?
A: Its value is “significantly increased resistance”.

Q: What about the “sensitivity of plants to COR vs MeJA” value [2] of the same molecule?
A: The value was “significantly less sensitive; also recorded: differentially sensitive”.

Q: And the “sensitivity of plants to COR vs MeJA” value ([2]; listed as COI A384V)?
A: Its value is “more sensitive”.

Q: What about the “COR-dependent COI1-JAZ9 interaction” value ([4]; liquid Y2H, 1 μM COR) of the same molecule?
A: Its value is “greatly reduced”.

Q: What about the “JA-Ile-dependent COI1-JAZ9 interaction” value ([4]; liquid Y2H, 10 or 30 μM JA-Ile) of the same molecule?
A: The value was “less effect”.

Q: And the “differential effect on JA-Ile-dependent vs COR-dependent COI1-JAZ9 interaction” value ([4]; liquid Y2H)?
A: Its value is “preferably affects COR-dependent COI1-JAZ9 interaction”.
